We go through 4 substances from patent publication US20220307159.

In data set [1] the target is eIF3 complex (detected via eIF3b) (Homo sapiens) (UniProt Q14152+P55884+Q99613+O15371+P60228+O00303+O75821+O15372+Q13347+O75822+Q9UBQ5+Q9Y262+Q7L2H7). The data set is described as follows: pulldown. The note with it: RIP-chip co-IP with anti-eIF3b, 4 C.
The target of a further data set is T1, LIN28A (UniProt Q9H9Z2).
T1 sequence: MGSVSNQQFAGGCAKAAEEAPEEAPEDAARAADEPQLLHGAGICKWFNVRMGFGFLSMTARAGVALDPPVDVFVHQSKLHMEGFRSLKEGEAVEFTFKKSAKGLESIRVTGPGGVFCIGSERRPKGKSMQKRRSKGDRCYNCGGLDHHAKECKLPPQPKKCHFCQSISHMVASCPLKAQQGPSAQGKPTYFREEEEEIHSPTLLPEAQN
The data set is described as follows: pulldown. The note with it: RIP-chip microarray, TALON beads, 4 C.

“HIV_2014_Siegfried_nucs_1_753_2_Multi (HIV-1 gag IRES)” returned a binding signal (top % (rank 568)) in data set [1] of 6.58.

Turning to “HIV_2014_Siegfried_nucs_1_753_9 (HIV-1 gag IRES)”, the binding signal (top % (rank 17)) in data set [1] turned out to be 0.2.

In turn, hsa-mir-532 yielded a binding signal (Cy5 intensity (rank 10)) with LIN28A of 7.39.

Regarding pre-hsa-mir-940, the binding signal (Cy5 intensity (rank 6)) with LIN28A is 7.5.
